Measurements: the supplement of paper PMC9170038

System: MS2 coat protein
Assay: apparent KD of MS2 coat protein; designed switch direction (-1 OFF switch, 1 ON switch): 1; higher = weaker reporter binding
Outline: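 Designed RNA switches sharing common flanks were transcribed on Illumina chips by stalled E. coli RNA polymerase. They were titrated with SNAP-549-labelled MS2 coat protein, from 0.7 or 1.5 nM doubling to 3 µM, in Tris-HCl pH 7.5 buffer with KCl, MgCl2, BSA, DTT, tRNA and Tween-20. Titrations ran without input, with 200 uM small-molecule ligand, or with an oligonucleotide input. The apparent KD of each design is the median over its clusters, after curve-fitting of normalised cluster fluorescence.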

[1] = input ligand: microRNA oligo, concentration not stated
[2] = Eterna round: R95, input ligand: FMN 200 uM
[3] = Eterna round: R95, input ligand: microRNA oligo, concentration not stated
[4] = Eterna round: R95, input ligand: none

Sequence | apparent KD of MS2 coat protein (input ligand: FMN 200 uM) | apparent KD of MS2 coat protein [1] | apparent KD of MS2 coat protein (input ligand: none) | apparent KD of MS2 coat protein [2] | apparent KD of MS2 coat protein [3] | apparent KD of MS2 coat protein [4]
AGGCUGAGUCGAGGAUAUUAUGGAUCCUCUAAUACAUGAGGAUCACCCAUGUAAUUAAUUAUACAUGAGAAGGCGACUCAGCCU [SSNG2/12-A4] (Eterna round: R96, puzzle: Same State NG 2) | 533 nM | 15 nM | 34.7 nM | – | – | –
GGUCCAUCAUGAGGAUAUGGCACCUUAUUGGUGCCAGAAGGCAUGUAAAUUAUAAUAAACAUGAGGAUCACCCAUGUAUGGACC [Eli NG1ss - 96] (Eterna round: R96, puzzle: Same State NG 1) | 439 nM | 55.5 nM | 137 nM | – | – | –
UACAAUCUAUCUGAGGAUAUCAUGAAUAAAACAUGAGGAUCACCCAUGUGCAGGAUAACUGCAAAUGAGAAGGCAGAUAGAUUGU [Mat - Same State 2 - Mod - D8] (puzzle: Same State 2) | – | – | – | 13.5 nM | 16 nM | 24.1 nM
UUGCUCGUGUGAGGAUAUGCCGCCGUUUCGGCUGCAGAAGGUACUUUAAUACAUGAGGAUCACCCAUGUCUCUGUUGUUUCGUG [salish99_SSNG1_r04_933] (Eterna round: R96, puzzle: Same State NG 1) | – | 23.1 nM | – | – | – | –
GUGGUCAGACAUGAGGAUCACCCAUGUGGAAUAAAUAACAGACAGGAUAUGUAAUAUAAAAUAUAACAGAAGGGUCGAUUGGUG (Eterna round: R96, puzzle: Same State NG 3) | 79.6 nM | 64.7 nM | 93.9 nM | – | – | –
GGAAUAUGAUGUUACAUGAGGAUCACCCAUGUAGUGAUAACUAAGGAUAUCUGUUAAGAUAACUAAGAGAAGGUAGGAUCAUAA [AK SSNG3-V2-8.3] (Eterna round: R96, puzzle: Same State NG 3) | 49.7 nM | 44.9 nM | 55.9 nM | – | – | –
CUUCUUCCUUUUACAUGAGGAUCACCCAUGUUUUCAUAUUGAGAGGAUAUCGUAUUUGGAAACAUCGAGAAGGCUCAUUUGUAU [JR_SSNG3_Sub074] (Eterna round: R96, puzzle: Same State NG 3) | 78.6 nM | 98.6 nM | 223 nM | – | – | –
GGAAUAUUUACAGGAUAUGUUUUGUUAAGUCGAGCAGAAGGGUGGAUGUCUUACACGGUUUGUUACAUGAGGAUCACCCAUGUC [SameState NG1 #15] (Eterna round: R96, puzzle: Same State NG 1) | – | 188 nM | – | – | – | –
UUAAUAAAUCAAGGAUAUCACGUCGAUUAGACGUGAGAAGGUGAUCAUAACAUGAGGAUCACCCAUGUAUUACAUGAAUAUUAA [SSNG1/1-B2] (Eterna round: R96, puzzle: Same State NG 1) | 1810 nM | 721 nM | 659 nM | – | – | –
GGUACCAUCACAGGAUAUGCUAUCCUUUGGGUAGCAGAAGGGUGAAACAUGAGGAUCACCCAUGUGGUGCCAGGGCGUGAGCCC [JL SSNG1 1.92] (Eterna round: R96, puzzle: Same State NG 1) | 31.2 nM | 398 nM | 689 nM | – | – | –
CGUCCAGCCUGAGCUGGACAAAAGCAUGUACAUGAGGAUCACCCAUGUUCAUGUACAAGCUUUUUGCUCGUCUUACG [salish99_208a_r3_093x] (puzzle: Sensor for hsa-mir-208a) | – | – | – | 507 nM | 16.7 nM | 617 nM
CUAUCUACAGGUUUCAGUGCUCGUCUUAUACAUGAGGAUCACCCAUGUUAUAGCCCGGUGCUUGCGCUGGGCUGAUU [JL ViennaUCT Tearor mod 3] (puzzle: Sensor for hsa-mir-208a) | – | – | – | 31.4 nM | 14.8 nM | 39.3 nM
AGCCUGAGUCGAGGAUAUUAUGGAUCCUCUAAUACAUGAGGAUCACCCAUGUAAUUAAUUAUACAUGAGAAGGCGACUCAGGCA [SSNG2/12-A3] (Eterna round: R96, puzzle: Same State NG 2) | 98.7 nM | 69.4 nM | 25.5 nM | – | – | –
GUGGCCCAGGCACAGGAUAUGUUUCUCGUAACAUGAGGAUCACCCAUGUGCCUAUGAGAUUUUAUGCAGAAGGGUGCACGCCACG [JL Atiinbe mod 01] (puzzle: Same State 2) | – | – | – | 18.5 nM | 56 nM | 123 nM
AGAUGUUAAUUAGGAUAUGGACACAUGAGGAUCACCCAUGUAACGUAGAUACGAUGUGGUCAAGUCUAGAAGGGAUAGCUAACA [SameState NG2 #76] (Eterna round: R96, puzzle: Same State NG 2) | 39.9 nM | 35.2 nM | 40.3 nM | – | – | –
AAUUUCUAGAGAGGAUAUGCAGAGGAUCACCCUGCAGAAGGCUCGAGAGAGAGGAUAUGCAGAGGAUCACCCUGCAGAAGGCUC [pwkr ssNG DX.29] (Eterna round: R96, puzzle: Same State NG 1) | 14.5 nM | 14.7 nM | 18.4 nM | – | – | –

Sequence | apparent KD of MS2 coat protein (input ligand: FMN 200 uM) | apparent KD of MS2 coat protein [1] | apparent KD of MS2 coat protein (input ligand: none) | apparent KD of MS2 coat protein [2] | apparent KD of MS2 coat protein [3] | apparent KD of MS2 coat protein [4]
CUGAGCGAUCGAGGAUAUCACGUCGAAUAGACGUGAGAAGGCGAUCAUAACAUGAGGAUCACCCAUGUAUUACAUGAAGCUCAG [SSNG1/4-A1] (Eterna round: R96, puzzle: Same State NG 1) | 13.2 nM | 10.5 nM | 17.8 nM | – | – | –
GGAGGACAUGAGGAUCACCCAUGUGGAUGAACGCUAGGAUAUGCGUGCAGGAAGAGUGGAGCAGAAGGAGUGGGAU [JR_SS1_Sub047] (puzzle: Same State 1) | – | – | – | – | 19.1 nM | –
UGCUAUUGUAUAUUGGUGCAAGCUUUUUGACAUGAGGAUCACCCAUGUACUCGUCUUUAGCGCAGUCCGUAGACUGC (puzzle: Sensor for hsa-mir-208a) | – | – | – | 52.4 nM | 13.5 nM | 56.6 nM
GAGUGACAUGAGGAUCACCCAUGUAGAAUAGAACAAGGAUAUGUGGAAGGCGGAGGAGAGACAGAAGGUGUUGAGG [JR_SS1_Sub058] (puzzle: Same State 1) | – | – | – | 52 nM | 77.1 nM | 119 nM
AAAAUGGUAUGUUACAUGAGGAUCACCCAUGUACUCUCCUCUGAGGAUAUGGGAAUGUUGAAAAACCAGAAGGCAGACAUCCAA [AK SSNG3-V2-22] (Eterna round: R96, puzzle: Same State NG 3) | 139 nM | 177 nM | 192 nM | – | – | –
CGGCGUUGUCGAGAGGAUAUGCGGUGAUGGACAUGAGGAUCACCCAUGUUAGCGAUAGCAUUACGGUAGAAGGCUCUACAGCUGC [Soteed Omei mod 7] (puzzle: Same State 2) | – | – | – | – | 42.5 nM | –
UUGGUUCUCGUAGGAUAUGUAGGAUAUUCCUACAUGAGGAUCACCCAUGUUCGCAUGGAAGAAGGACAGAAGGACGAUCACCAU [pwkr ssNG2 2FMN + 1F5.18] (Eterna round: R96, puzzle: Same State NG 2) | 54.8 nM | 1.88 nM | 14 nM | – | – | –
AGUCCAGCGAAAGCUGGACAAAAGCAUGUACAUGAGGAUCACCCAUGUUCAUGUAUAAGCUUUUUGCUCGUCUUAAA [JL mod - D95 - 12] (puzzle: Sensor for hsa-mir-208a) | – | – | – | 18.1 nM | 9.2 nM | 15.9 nM
AGCCGAGACACAGGAUAUAGAUGUCUACAUGAGGAUCACCCAUGUAGCAACACGUGGUAGUGAUUCUAGAAGGGUGCUCGGCGC [Omei SS(NG)2 Cv10] (Eterna round: R96, puzzle: Same State NG 2) | 13.1 nM | 20.5 nM | 28.7 nM | – | – | –
AUUGCUUACGCAGGAUAUGAUGCGGAAACUGCGUCAGAAGGGUGAACAGAAUCGUUGCAAGAAGACAUGAGGAUCACCCAUGUC [SameState NG1 #96] (Eterna round: R96, puzzle: Same State NG 1) | 33.9 nM | 33.5 nM | 44.4 nM | – | – | –
GGUCCAGCCUGAGCUGGACCGAAGCGUGUACAUGAGGAUCACCCAUGUCAUGUACAGGCUUUUUGCUCGUCUUAUUG [JL-shm-2.11 JL Mod] (puzzle: Sensor for hsa-mir-208a) | – | – | – | 46.5 nM | 20.6 nM | 72.9 nM
AUGAAGAAUUAAGGAUAUUGAAUACAUAUGUUUAACAUGAGGAUCACCCAUGUGGGUUGCGGUAUCGAGAAGGUAAAAUAAUAG [Mat - same State NG 2 - JL mod - D91] (Eterna round: R96, puzzle: Same State NG 2) | 162 nM | 79.4 nM | 136 nM | – | – | –
UUGAGGAAUUAAGGAUAUUGAGUACAUAUGUUUAACAUGAGGAUCACCCAUGUGGGUUGCGGUAUCGAGAAGGUAAAUUACUAC [salish99_SSNG2_r04_801] (Eterna round: R96, puzzle: Same State NG 2) | 113 nM | 73.2 nM | 120 nM | – | – | –
AUUUUUAAUGCAGGAUAUGAUUAACAUGAGGAUCACCCAUGUGGUGUUGUGAGUAAGGAGAGUGAUCAGAAGGGCAUUUUUUUA [JMF's solution 89] (Eterna round: R96, puzzle: Same State NG 2) | 1010 nM | 554 nM | 585 nM | – | – | –
GGAGCCGGCACUGAGGAUAUUCAUAUUAAAACAUGAGGAUCACCCAUGUGGGCCAGAAGGCCUUGGGAGAAGGCAGGUCGGCCCG [Bibimoar - 4] (puzzle: Same State 2) | – | – | – | 20.2 nM | 140 nM | 183 nM
